Experimental findings from patent publication US7232659 are described below.

Assay [1] has as its target FPR-GFP fusion protein (human; Aequorea victoria), P21462. In words: Kd from competition on wild type FPR divided by EC50 of LRG assembly with FPR-GFP.
In assay [2] the target is T1, formyl peptide receptor (FPR), wild type, detergent-solubilized (human), P21462.
T1 chain: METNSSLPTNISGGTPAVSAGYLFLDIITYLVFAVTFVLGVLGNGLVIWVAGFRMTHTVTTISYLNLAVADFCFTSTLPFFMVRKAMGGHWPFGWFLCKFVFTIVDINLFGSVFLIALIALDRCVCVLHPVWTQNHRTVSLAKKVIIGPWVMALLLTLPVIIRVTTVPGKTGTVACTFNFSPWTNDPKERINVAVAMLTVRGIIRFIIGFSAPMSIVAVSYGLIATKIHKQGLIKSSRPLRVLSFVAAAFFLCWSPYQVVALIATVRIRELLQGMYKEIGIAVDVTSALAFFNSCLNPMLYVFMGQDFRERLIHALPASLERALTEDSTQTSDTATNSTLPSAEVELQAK
In words: spectrofluorimetric competition with L^F for solubilized FPR, IC50 converted to Kd.

The target of assay [3] is FPR-GFP fusion protein (human; Aequorea victoria), P21462. Nature of the assay: flow cytometry, LRG assembly of 30 nM FPR-GFP on αβγ DCNi beads, ligand varied (FIG. 13B). A general note: In flow cytometry, cells or beads pass a laser one at a time.

As for MLFF (modifications not checked) [fMLFF], in assay [1], the ratio of Kd (for LR) to EC50 (for LRG formation) is 2.8. Further, in assay [2], the dissociation constant Kd turned out to be 75 nM. The EC50 in assay [3] amounted to 27 nM.

As a reminder, the Kd is the concentration at which binding is half-saturated. The low end stands for higher affinity, the high end for lower affinity. As a reminder, the EC50 is the concentration at which the effect is half-maximal. Low values mean higher potency in that assay, high ones lower potency in that assay.
